Measured values reported in paper PMC3605307 (2013).

B1: TRAIL (TNF-related apoptosis inducing ligand) ectodomain (ligand)
chain: TNELKQMQDKYSKSGIACFLKEDDSYWDPNDEESMNSPCWQVKWQLRQLVRKMILRTSEETISTVQEKQQNISPLVRERGPQRVAAHITGTRGRSNTLSSPNSKNEKALGRKINSWESSRSGHSFLSNLHLRNGELVIHEKGFYYIYSQTYFRFQEEIKENTKNDKQMVQYIYKYTSYPDPILLMKSARNSCWSKDAEYGLYSIYQGGIFELKENDRIFVSVTNEHLIDMDHEASFFGAFLVG
B2: Recombinant UL141 ectodomain (soluble, released from the Fc fusion) (domain or fragment)
chain: SFPFATADIAEKMWAENYETTSPAPVLVAEGEQVTIPCTVMTHSWPMVSIRARFCRSHDGSDELILDAVKGHRLMNGLQYRLPYATWNFSQLHLGQIFSLTFNVSTDTAGMYECVLRNYSHGLIMQRFVILTQLETLSRPDEPCCTPALGRYSLGDQIWSPTPWRLRNHDCGMYRGFQRNYFYIGRADAEDCWKPACPDEEPDRCWTVIQRYRLPGDCYRSQPHPPKFLPVTPAPPADIDTGMSPWATRG

Experiments:
Assay in all cases: SPR
[1] = target: Human TRAIL-R2-Fc D109A together with E78A (human, UniProt O14763 58-184, E78A | D109A)
Sequence of Human TRAIL-R2-Fc D109A together with E78A (O14763 58-184 E78A/D109A): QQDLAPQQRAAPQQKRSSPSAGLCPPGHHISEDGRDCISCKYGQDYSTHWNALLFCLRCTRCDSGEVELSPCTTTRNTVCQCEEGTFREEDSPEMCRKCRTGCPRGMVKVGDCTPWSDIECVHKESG

[2] = target: Human TRAIL-R2-Fc triple mutation V167A-W173A-V179A (human, UniProt O14763 58-184, V167A | W173A | V179A)
Sequence of Human TRAIL-R2-Fc triple mutation V167A-W173A-V179A (O14763 58-184 V167A/W173A/V179A): as the sequence (O14763 58-184 E78A/D109A) above, with A21E, A52D, V110A, W116A, V122A counted along it

Human TRAIL-R2-Fc V167A = Human TRAIL-R2-Fc V167A (human, UniProt O14763 58-184, V167A)
Sequence of Human TRAIL-R2-Fc V167A (O14763 58-184 V167A): as the sequence (O14763 58-184 E78A/D109A) above, with A21E, A52D, V110A counted along it

Human TRAIL-R2-Fc F112A = Human TRAIL-R2-Fc F112A (human, UniProt O14763 58-184, F112A)
Sequence of Human TRAIL-R2-Fc F112A (O14763 58-184 F112A): as the sequence (O14763 58-184 E78A/D109A) above, with A21E, A52D, F55A counted along it

Row | Binder | Kd [1] | Kd [2] | Kd (Human TRAIL-R2-Fc V167A) | Kd (Human TRAIL-R2-Fc F112A)
1 | B1 | 4 nM | 4 nM | 4 nM | 4 nM
2 | B2 | 60 nM | – | – | –
